In article doi:10.1101/2021.05.31.446396 (bioRxiv, 2021):
Residue numbers refer to the chain shown, from its start. Numbers in names are those of the source.

B1: D2 domain of EccCb1 (35-316 residues), wild type (domain or fragment)
chain: NPVPLNELIARDRRQPLRFALGIMDEPRRHLQDVWGVDVSGAGGNIGIGGAPQTGKSTLLQTMVMSAAATHSPRNVQFYCIDLGGGGLIYLENLPHVGGVANRSEPDKVNRVVAEMQAVMRQRETTFKEHRVGSIGMYRQLRDDPSQPVASDPYGDVFLIIDGWPGFVGEFPDLEGQVQDLAAQGLAFGVHVIISTPRWTELKSRVRDYLGTKIEFRLGDVNETQIDRITREIPANRPGRAVSMEKHHLMIGVPRFDGVHSADNLVEAITAGVTQIASQHTE
B2: D2 domain of EccCb1 (35-316 residues), Q87A mutant (domain or fragment)
chain: B1 chain with Q53A
B3: D2 domain of EccCb1 (35-316 residues), K90A mutant (domain or fragment)
chain: B1 chain with K56A
B4: D2 domain of EccCb1 (35-316 residues), S91A mutant (domain or fragment)
chain: B1 chain with S57A
B5: D2 domain of EccCb1 (35-316 residues), T92A mutant (domain or fragment)
chain: B1 chain with T58A
B6: D3 domain of EccCb1 (349-580 residues), wild type (domain or fragment)
chain: EIPIGLRETDLTPAHCHMHTNPHLLIFGAAKSGKTTIAHAIARAICARNSPQQVRFMLADYRSGLLDAVPDTHLLGAGAINRNSASLDEAVQALAVNLKKRLPPTDLTTAQLRSRSWWSGFDVVLLVDDWHMIVGAAGGMPPMAPLAPLLPAAADIGLHIIVTCQMSQAYKATMDKFVGAAFGSGAPTMFLSGEKQEFPSSEFKVKRRPPGQAFLVSPDGKEVIQAPYIEPP

Biological target: the molecule itself
Test: SEC

Protein	stoichiometry N
B1	2
B2	2
B3	2
B4	2
B5	2
B6	2
